{"source": "the supplement of paper PMC12042874", "note": "± gives the uncertainty stated by the source."}
{"test": "amyloid nucleation score (Sup35N fusion, yeast selection) (log enrichment); library NNK1; higher = more nucleation; inactive = no reads after selection", "procedure,_shortened": "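Peptides of 20 random codons fused to Sup35N were expressed in psi-negative yeast, induced 24 hours with 100 μM copper sulfate, then grown 7 days at 30°C on medium lacking adenine and uracil. Input and output plasmid inserts were Illumina-sequenced. Nucleation score is the DiMSum log enrichment of output over input reads, centred on the mode score of non-aggregating sequences, excluding sequences with under 100 input reads. Random libraries had three technical output replicates.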"}
{"substance": "PASSCAVVELGMKVGEGGIP", "amyloid nucleation score": "-0.386 ± 0.95"}
{"substance": "TIVSDGAQDFQHHS", "amyloid nucleation score": "inactive"}
{"substance": "PTYTGVLSLN", "amyloid nucleation score": "0.341 ± 0.56"}
{"substance": "WLTKSEN", "amyloid nucleation score": "-0.151 ± 0.27"}
{"substance": "PWTTG", "amyloid nucleation score": "0.298 ± 0.24"}
{"substance": "DFRLGHDFWANKSFFFTSPN", "amyloid nucleation score": "-0.028 ± 0.31"}
{"substance": "TMSFSFF", "amyloid nucleation score": "0.855 ± 0.28"}
{"substance": "KTGARYSLSACYLTRTDYHW", "amyloid nucleation score": "0.056 ± 0.43"}
{"substance": "DEKMVSVSSESGRLHKNVKC", "amyloid nucleation score": "1.11 ± 0.49"}
{"substance": "FLYSSLFDKVNCCNRPPVSS", "amyloid nucleation score": "-0.014 ± 0.7"}
{"substance": "NIWVLTYCLVYLSWSNHVF", "amyloid nucleation score": "-0.709 ± 0.78"}
{"substance": "LNVIVKDRGPCKSSSEIAVD", "amyloid nucleation score": "-1.35 ± 1.3"}
{"substance": "YVVWQFNWLDTTHHFFELSG", "amyloid nucleation score": "-0.022 ± 0.69"}
{"substance": "NVGSLVHAAW", "amyloid nucleation score": "-0.613 ± 1.3"}
{"substance": "TFVLV", "amyloid nucleation score": "0.332 ± 0.74"}
{"substance": "RIYKSWSFRTLRLPEC", "amyloid nucleation score": "2.25 ± 0.1"}
{"substance": "CRTYYCHTHGPAQKDHYDRG", "amyloid nucleation score": "-0.78 ± 0.89"}
{"substance": "LCNFDSGFGNYGLL", "amyloid nucleation score": "-0.17 ± 0.52"}
{"substance": "IDKSVGLVHKTHYWFQPWYK", "amyloid nucleation score": "0.445 ± 0.43"}
{"substance": "QRSNRGLPYKSRDGI", "amyloid nucleation score": "0.153 ± 0.39"}
{"substance": "AWLKSSGEEVVAGAQRPEHV", "amyloid nucleation score": "-1.02 ± 0.9"}
{"substance": "YFISVVFASGKGW", "amyloid nucleation score": "-0.387 ± 0.8"}
{"substance": "GFSMTKCAYTNTH", "amyloid nucleation score": "1.68 ± 0.17"}
{"substance": "ALRAHHSL", "amyloid nucleation score": "0.498 ± 0.56"}
{"substance": "IWCHRSGRLFPSMLLKYYRD", "amyloid nucleation score": "-0.766 ± 1.7"}
{"substance": "CIIDKFGVLIV", "amyloid nucleation score": "inactive"}
{"substance": "ACFWYTL", "amyloid nucleation score": "0.024 ± 0.47"}
{"substance": "GILFVFFQYF", "amyloid nucleation score": "1.95 ± 0.15"}
{"substance": "PKDLIVTTLHAWCDRHSYT", "amyloid nucleation score": "-0.49 ± 0.76"}
{"substance": "ELVISMGRLWVG", "amyloid nucleation score": "2.02 ± 0.17"}
{"substance": "SWTKVHLLVQAL", "amyloid nucleation score": "-1.14 ± 0.86"}
{"substance": "HGRQE", "amyloid nucleation score": "0.184 ± 1"}
{"substance": "INRVSLCTVEAVLSHEDACG", "amyloid nucleation score": "-0.494 ± 0.32"}
{"substance": "RCGRAINGVQCVHWFVMSEG", "amyloid nucleation score": "0.429 ± 0.58"}
{"substance": "VVEFCCVQT", "amyloid nucleation score": "-1.53 ± 1.7"}
{"substance": "LHHRSLFDCESNTAGSPRFV", "amyloid nucleation score": "-0.279 ± 0.47"}
{"substance": "SVTDRKV", "amyloid nucleation score": "0.468 ± 0.41"}
{"substance": "YFAVDDNYLHIQTSVRSRCS", "amyloid nucleation score": "0.036 ± 0.41"}
{"substance": "RSFVLLGFPSY", "amyloid nucleation score": "-0.882 ± 0.66"}
{"substance": "GVVSKQSYVRITLGTGPSGE", "amyloid nucleation score": "0.476 ± 1.2"}
{"substance": "HVGSATASRVMSGCGSTVSY", "amyloid nucleation score": "-1.83 ± 1.7"}
{"substance": "RQMRPLGRGPS", "amyloid nucleation score": "-0.169 ± 0.84"}
{"substance": "RPCFGFLGYNNAV", "amyloid nucleation score": "0.109 ± 1.4"}
{"substance": "SWASLIC", "amyloid nucleation score": "-0.838 ± 0.89"}
{"substance": "YAYYLSDRVCFD", "amyloid nucleation score": "0.303 ± 0.4"}
{"substance": "SAHITDVLHKMWRNNTTTWY", "amyloid nucleation score": "1.15 ± 0.55"}
{"substance": "HANISLRSWRFRYHCREFKG", "amyloid nucleation score": "1.47 ± 0.2"}
{"substance": "LSFWLCSWSMWCKSQLGNDR", "amyloid nucleation score": "2.13 ± 0.13"}
{"substance": "RHVNEAESAGEGTGNYSRYS", "amyloid nucleation score": "-0.206 ± 0.41"}
{"substance": "VEPLCGTRFACRLNAFKTTG", "amyloid nucleation score": "-0.097 ± 0.39"}
{"substance": "TYGEYRTYISYH", "amyloid nucleation score": "0.389 ± 0.43"}
{"substance": "VYVVGLFQLVSITFLCRITV", "amyloid nucleation score": "0.153 ± 0.22"}
{"substance": "ANTPRFMNTLV", "amyloid nucleation score": "-0.824 ± 0.51"}
{"substance": "AYLADCFPDVSTNWVRAISA", "amyloid nucleation score": "-0.337 ± 0.29"}
{"substance": "NWVLGVAYRRLRHKCSMYRV", "amyloid nucleation score": "0.387 ± 0.67"}
{"substance": "GVWGQFQVSILWRHKCDLSG", "amyloid nucleation score": "inactive"}
{"substance": "SSCKWSSKPAHEFQVMTAPT", "amyloid nucleation score": "-0.007 ± 0.65"}
{"substance": "LRSSVSFGQLSRNPHAGSSH", "amyloid nucleation score": "-1.4 ± 1.4"}
{"substance": "VIHTRGNWSKRHVMIWISES", "amyloid nucleation score": "-0.016 ± 1.2"}
{"substance": "VGWLRFIRWYDPRLENWRTG", "amyloid nucleation score": "0.235 ± 0.78"}
{"substance": "DLKVNCVGEWADRLFMFSFG", "amyloid nucleation score": "0.683 ± 0.84"}
{"substance": "VVSNVPVWTSGYYHHCCHRC", "amyloid nucleation score": "0.856 ± 0.79"}
{"substance": "GPSLGVIFKEIWFYYG", "amyloid nucleation score": "0.541 ± 0.3"}
{"substance": "SIASIIRRFNWDTK", "amyloid nucleation score": "3.87 ± 0.095"}
{"substance": "AGYCVCLYMLEYSGTFGYSH", "amyloid nucleation score": "1.63 ± 0.19"}
{"substance": "TYRNHYCKDKAL", "amyloid nucleation score": "0.175 ± 0.75"}
{"substance": "CMIIRVGGRQGIHYSFSRMD", "amyloid nucleation score": "-0.652 ± 0.26"}
{"substance": "TGDDSYDVLLVGLVKTSGVY", "amyloid nucleation score": "-0.234 ± 0.34"}
{"substance": "KLFGTAYS", "amyloid nucleation score": "-0.847 ± 0.96"}
{"substance": "GRGRKVYLVDLGSGL", "amyloid nucleation score": "-0.285 ± 0.53"}
{"substance": "RPGWSHRITENLPFVEKVGP", "amyloid nucleation score": "-0.502 ± 0.7"}
{"substance": "TDKSCRRNGTHAMVHFTPEL", "amyloid nucleation score": "-1.99 ± 1.7"}
